{"source": "the supplement of paper PMC9112550", "about": "“Optimization of the antimicrobial peptide Bac7 by deep mutational scanning” (BMC Biology, 2022);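 further: peptides expressed intracellularly from a pBAD plasmid library in pooled LB shake-flask culture, induced with 0.3% L-arabinose, DNA abundance read by NGS, three biological replicates, DESeq2 with apeglm shrinkage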"}
{"system": "Escherichia coli TOP10", "test": "shrunken log2 fold change of peptide-encoding DNA abundance (4.5 h post-induction vs induction); higher = less antimicrobial activity (less host growth inhibition)", "conditions": "time post-induction: 4.5 h; library: site-saturation at positions 5, 18, 19, 20"}
{"sequence": "RRIRKRPPRLPRPRPRPKYRPRP", "shrunken log2 fold change": -0.00889}
{"sequence": "RRIRQRPPRLPRPRPRPPTRPRP", "shrunken log2 fold change": 0.398}
{"sequence": "RRIRTRPPRLPRPRPRPSSMPRP", "shrunken log2 fold change": -0.239}
{"sequence": "RRIRKRPPRLPRPRPRPIFSPRP", "shrunken log2 fold change": -0.143}
{"sequence": "RRIRFRPPRLPRPRPRPENGPRP", "shrunken log2 fold change": -0.166}
{"sequence": "RRIRQRPPRLPRPRPRPYNYPRP", "shrunken log2 fold change": -1.44}
{"sequence": "RRIRIRPPRLPRPRPRPRKCPRP", "shrunken log2 fold change": -0.599}
{"sequence": "RRIRARPPRLPRPRPRPVKYPRP", "shrunken log2 fold change": -0.166}
{"sequence": "RRIRYRPPRLPRPRPRPRICPRP", "shrunken log2 fold change": 0.00835}
{"sequence": "RRIRMRPPRLPRPRPRPVCRPRP", "shrunken log2 fold change": 1.48}
{"sequence": "RRIRCRPPRLPRPRPRPKTSPRP", "shrunken log2 fold change": -0.179}
{"sequence": "RRIRKRPPRLPRPRPRPLQYPRP", "shrunken log2 fold change": -0.0563}
{"sequence": "RRIRIRPPRLPRPRPRPARLPRP", "shrunken log2 fold change": -0.0547}
{"sequence": "RRIRLRPPRLPRPRPRPSVNPRP", "shrunken log2 fold change": -0.822}
{"sequence": "RRIRDRPPRLPRPRPRPIDNPRP", "shrunken log2 fold change": 0.131}
{"sequence": "RRIRQRPPRLPRPRPRPWGFPRP", "shrunken log2 fold change": 0.0223}
{"sequence": "RRIRGRPPRLPRPRPRPFMLPRP", "shrunken log2 fold change": -0.0447}
{"sequence": "RRIRERPPRLPRPRPRPGILPRP", "shrunken log2 fold change": -0.304}
{"sequence": "RRIRQRPPRLPRPRPRPFGLPRP", "shrunken log2 fold change": -0.131}
{"sequence": "RRIRPRPPRLPRPRPRPRFSPRP", "shrunken log2 fold change": -0.0121}
{"sequence": "RRIRTRPPRLPRPRPRPQSRPRP", "shrunken log2 fold change": -0.0689}
{"sequence": "RRIRKRPPRLPRPRPRPFKCPRP", "shrunken log2 fold change": -0.0191}
{"sequence": "RRIRIRPPRLPRPRPRPCPRPRP", "shrunken log2 fold change": -0.185}
{"sequence": "RRIRWRPPRLPRPRPRPCEEPRP", "shrunken log2 fold change": 0.0489}
{"sequence": "RRIRHRPPRLPRPRPRPGVHPRP", "shrunken log2 fold change": -0.9}
{"sequence": "RRIRQRPPRLPRPRPRPHFRPRP", "shrunken log2 fold change": 0.092}
{"sequence": "RRIRKRPPRLPRPRPRPYMCPRP", "shrunken log2 fold change": -0.0998}
{"sequence": "RRIRPRPPRLPRPRPRPYQHPRP", "shrunken log2 fold change": -0.592}
{"sequence": "RRIRWRPPRLPRPRPRPVSYPRP", "shrunken log2 fold change": -0.131}
{"sequence": "RRIRRRPPRLPRPRPRPWQIPRP", "shrunken log2 fold change": 0.0297}
{"sequence": "RRIRVRPPRLPRPRPRPRGGPRP", "shrunken log2 fold change": 0.609}
{"sequence": "RRIRCRPPRLPRPRPRPHVRPRP", "shrunken log2 fold change": -0.4}
{"sequence": "RRIRERPPRLPRPRPRPAAEPRP", "shrunken log2 fold change": 0.0581}
{"sequence": "RRIRIRPPRLPRPRPRPVLFPRP", "shrunken log2 fold change": -0.357}
{"sequence": "RRIRYRPPRLPRPRPRPWAHPRP", "shrunken log2 fold change": -0.324}
{"sequence": "RRIRARPPRLPRPRPRPYAGPRP", "shrunken log2 fold change": -0.534}
{"sequence": "RRIRQRPPRLPRPRPRPKTIPRP", "shrunken log2 fold change": -0.184}
{"sequence": "RRIRQRPPRLPRPRPRPTLVPRP", "shrunken log2 fold change": 0.186}
{"sequence": "RRIRPRPPRLPRPRPRPMLGPRP", "shrunken log2 fold change": 0.252}
{"sequence": "RRIRMRPPRLPRPRPRPYREPRP", "shrunken log2 fold change": -0.0131}
{"sequence": "RRIRSRPPRLPRPRPRPLKDPRP", "shrunken log2 fold change": -0.484}
{"sequence": "RRIRMRPPRLPRPRPRPMWSPRP", "shrunken log2 fold change": -0.027}
{"sequence": "RRIRMRPPRLPRPRPRPWKYPRP", "shrunken log2 fold change": -0.198}
{"sequence": "RRIRQRPPRLPRPRPRPVFHPRP", "shrunken log2 fold change": -0.107}
{"sequence": "RRIRSRPPRLPRPRPRPWCRPRP", "shrunken log2 fold change": -0.398}
{"sequence": "RRIRHRPPRLPRPRPRPATDPRP", "shrunken log2 fold change": -0.185}
{"sequence": "RRIRMRPPRLPRPRPRPFPLPRP", "shrunken log2 fold change": -0.0414}
{"sequence": "RRIRKRPPRLPRPRPRPEIDPRP", "shrunken log2 fold change": 2.84}
{"sequence": "RRIRCRPPRLPRPRPRPTDEPRP", "shrunken log2 fold change": 2.52}
{"sequence": "RRIRLRPPRLPRPRPRPTNPPRP", "shrunken log2 fold change": -0.348}
{"sequence": "RRIRQRPPRLPRPRPRPDPPPRP", "shrunken log2 fold change": 0.316}
{"sequence": "RRIRVRPPRLPRPRPRPCRLPRP", "shrunken log2 fold change": -0.0106}
{"sequence": "RRIRGRPPRLPRPRPRPTRVPRP", "shrunken log2 fold change": 0.748}
{"sequence": "RRIRYRPPRLPRPRPRPTCVPRP", "shrunken log2 fold change": -0.503}
{"sequence": "RRIRWRPPRLPRPRPRPHTAPRP", "shrunken log2 fold change": -0.0505}
{"sequence": "RRIRWRPPRLPRPRPRPSHFPRP", "shrunken log2 fold change": -0.151}
{"sequence": "RRIRKRPPRLPRPRPRPTFMPRP", "shrunken log2 fold change": 0.189}
{"sequence": "RRIRQRPPRLPRPRPRPNTDPRP", "shrunken log2 fold change": -0.166}
{"sequence": "RRIRCRPPRLPRPRPRPPGCPRP", "shrunken log2 fold change": 0.412}
{"sequence": "RRIRGRPPRLPRPRPRPKIKPRP", "shrunken log2 fold change": 0.564}
{"sequence": "RRIRFRPPRLPRPRPRPMFGPRP", "shrunken log2 fold change": 0.312}
{"sequence": "RRIRMRPPRLPRPRPRPANFPRP", "shrunken log2 fold change": -0.000946}
{"sequence": "RRIRFRPPRLPRPRPRPMYAPRP", "shrunken log2 fold change": -0.406}
{"sequence": "RRIRWRPPRLPRPRPRPQMTPRP", "shrunken log2 fold change": -0.0595}
{"sequence": "RRIRKRPPRLPRPRPRPPGMPRP", "shrunken log2 fold change": 0.473}
{"sequence": "RRIRGRPPRLPRPRPRPCLLPRP", "shrunken log2 fold change": 0.164}
{"sequence": "RRIRMRPPRLPRPRPRPLKGPRP", "shrunken log2 fold change": -0.0357}
{"sequence": "RRIRQRPPRLPRPRPRPVTFPRP", "shrunken log2 fold change": -0.0496}
{"sequence": "RRIRWRPPRLPRPRPRPVGPPRP", "shrunken log2 fold change": 0.281}
{"sequence": "RRIRCRPPRLPRPRPRPNMEPRP", "shrunken log2 fold change": -0.237}
{"sequence": "RRIRPRPPRLPRPRPRPMNPPRP", "shrunken log2 fold change": 0.00824}
{"sequence": "RRIRHRPPRLPRPRPRPVKRPRP", "shrunken log2 fold change": -0.226}
{"sequence": "RRIRYRPPRLPRPRPRPCFAPRP", "shrunken log2 fold change": -0.521}
{"sequence": "RRIRFRPPRLPRPRPRPERFPRP", "shrunken log2 fold change": -0.104}
{"sequence": "RRIRPRPPRLPRPRPRPLCQPRP", "shrunken log2 fold change": -0.116}
